Molecular target: the molecule itself
Experiment: cryo-EM structure

B1: wild-type mouse TRPV3 channel (natural protein, UniProt Q8K424 1-791, looked up)
chain: MNAHSKEMAPLMGKRTTAPGGNPVVLTEKRPADLTPTKKSAHFFLEIEGFEPNPTVTKTSPPIFSKPMDSNIRQCLSGNCDDMDSPQSPQDDVTETPSNPNSPSANLAKEEQRQKKKRLKKRIFAAVSEGCVEELRELLQDLQDLCRRRRGLDVPDFLMHKLTASDTGKTCLMKALLNINPNTKEIVRILLAFAEENDILDRFINAEYTEEAYEGQTALNIAIERRQGDITAVLIAAGADVNAHAKGVFFNPKYQHEGFYFGETPLALAACTNQPEIVQLLMENEQTDITSQDSRGNNILHALVTVAEDFKTQNDFVKRMYDMILLRSGNWELETMRNNDGLTPLQLAAKMGKAEILKYILSREIKEKPLRSLSRKFTDWAYGPVSSSLYDLTNVDTTTDNSVLEIIVYNTNIDNRHEMLTLEPLHTLLHTKWKKFAKYMFFLSFCFYFFYNITLTLVSYYRPREDEDLPHPLALTHKMSWLQLLGRMFVLIWATCISVKEGIAIFLLRPSDLQSILSDAWFHFVFFVQAVLVILSVFLYLFAYKEYLACLVLAMALGWANMLYYTRGFQSMGMYSVMIQKVILHDVLKFLFVYILFLLGFGVALASLIEKCSKDKKDCSSYGSFSDAVLELFKLTIGLGDLNIQQNSTYPILFLFLLITYVILTFVLLLNMLIALMGETVENVSKESERIWRLQRARTILEFEKMLPEWLRSRFRMGELCKVADEDFRLCLRINEVKWTEWKTHVSFLNEDPGPIRRTADLNKIQDSSRSNSKTTLYAFDELDEFPETSV
  stoichiometry N: 4

Source: doi:10.1101/2025.09.17.676191 (bioRxiv, 2025)
